57 variants from the Human Domainome abundance scans (Beltran et al. 2025) can be followed below.

The chains are these.
B1: Tripartite motif-containing protein 44, residues 174 to 218; numbered along this chain, Q96DX7 (parent)
chain: VAKRKCPDHGLDLSTYCQEDRQLICVLCPVIGAHQGHQLSTLDEA

± gives the uncertainty stated by the source.

In this series the parent is B1. Nature of the series: abundance fitness (aPCA) (normalised: wild type 0, dead -1); higher = more abundant; growth selection in yeast, the domain comes from the species named. The note with it: Homo sapiens.
As for VAKRKCPDHGLDLSTYQQEDRQLICVLCPVIGAHQGHQLSTLDEA, the abundance fitness is -0.633 ± 0.045.

VAKRKCPDHGLDLSTYWQEDRQLICVLCPVIGAHQGHQLSTLDEA: the abundance fitness is -0.931 ± 0.045.

For VAKRKCPDHGLDLSTYEQEDRQLICVLCPVIGAHQGHQLSTLDEA, the abundance fitness was -0.546 ± 0.035.

For the variant VAKRKCPDHGLDLSTYGQEDRQLICVLCPVIGAHQGHQLSTLDEA, the abundance fitness is -0.557 ± 0.027.

As for VAKRKCPDHGLDLSTYAQEDRQLICVLCPVIGAHQGHQLSTLDEA, the abundance fitness was -0.641 ± 0.031.

As for VAKRKCPDHGLDLSTYLQEDRQLICVLCPVIGAHQGHQLSTLDEA, the abundance fitness is -0.982 ± 0.059.

Take VAKRKCPDHGLDLSTYHQEDRQLICVLCPVIGAHQGHQLSTLDEA: the abundance fitness is -0.818 ± 0.098.

Consider VAKRKCPDHGLDLSTYRQEDRQLICVLCPVIGAHQGHQLSTLDEA, for which the abundance fitness is -0.484 ± 0.029.

As to VAKRKCPDHGLDLSTYDQEDRQLICVLCPVIGAHQGHQLSTLDEA, the abundance fitness was -0.631 ± 0.064.

On to VAKRKCPDHGLDLSTYYQEDRQLICVLCPVIGAHQGHQLSTLDEA, for which the abundance fitness is -0.767 ± 0.094.

VAKRKCPDHGLDLSTYKQEDRQLICVLCPVIGAHQGHQLSTLDEA: the abundance fitness was -0.657 ± 0.052.

As for VAKRKCPDHGLDLSTYNQEDRQLICVLCPVIGAHQGHQLSTLDEA, the abundance fitness is -0.701 ± 0.15.

Consider VAKRKCPDHGLDLSTYPQEDRQLICVLCPVIGAHQGHQLSTLDEA, for which the abundance fitness was -0.751 ± 0.056.

As for VAKRKCPDHGLDLSTYVQEDRQLICVLCPVIGAHQGHQLSTLDEA, the abundance fitness was -0.753 ± 0.036.

With VAKRKCPDHGLDLSTYIQEDRQLICVLCPVIGAHQGHQLSTLDEA, the abundance fitness was -0.759 ± 0.091.

Consider VAKRKCPDHGLDLSTYFQEDRQLICVLCPVIGAHQGHQLSTLDEA, for which the abundance fitness was -0.334 ± 0.16.

With VAKRKCPDHGLDLSTYMQEDRQLICVLCPVIGAHQGHQLSTLDEA, the abundance fitness is -0.779 ± 0.067.

VAKRKCPDHGLDLSTYSQEDRQLICVLCPVIGAHQGHQLSTLDEA: the abundance fitness was -0.562 ± 0.038.

Regarding VAKRKCPDHGLDLSTYTQEDRQLICVLCPVIGAHQGHQLSTLDEA, the abundance fitness is -0.705 ± 0.047.

VAKRKCPDHGLDLSTHCQEDRQLICVLCPVIGAHQGHQLSTLDEA: the abundance fitness is -0.053 ± 0.041.

As to VAKRKCPDHGLDLSTPCQEDRQLICVLCPVIGAHQGHQLSTLDEA, the abundance fitness was -0.379 ± 0.038.

VAKRKCPDHGLDLSTCCQEDRQLICVLCPVIGAHQGHQLSTLDEA: the abundance fitness was -0.132 ± 0.043.

Take VAKRKCPDHGLDLSTWCQEDRQLICVLCPVIGAHQGHQLSTLDEA: the abundance fitness is -0.039 ± 0.03.

Consider VAKRKCPDHGLDLSTMCQEDRQLICVLCPVIGAHQGHQLSTLDEA, for which the abundance fitness was -0.011 ± 0.031.

For the variant VAKRKCPDHGLDLSTSCQEDRQLICVLCPVIGAHQGHQLSTLDEA, the abundance fitness is -0.16 ± 0.031.

In the case of VAKRKCPDHGLDLSTVCQEDRQLICVLCPVIGAHQGHQLSTLDEA, the abundance fitness is -0.052 ± 0.028.

For VAKRKCPDHGLDLSTTCQEDRQLICVLCPVIGAHQGHQLSTLDEA, the abundance fitness was 0.029 ± 0.036.

As for VAKRKCPDHGLDLSTQCQEDRQLICVLCPVIGAHQGHQLSTLDEA, the abundance fitness was -0.029 ± 0.035.

For the variant VAKRKCPDHGLDLSTDCQEDRQLICVLCPVIGAHQGHQLSTLDEA, the abundance fitness was -0.276 ± 0.037.

As to VAKRKCPDHGLDLSTNCQEDRQLICVLCPVIGAHQGHQLSTLDEA, the abundance fitness is -0.167 ± 0.049.

With VAKRKCPDHGLDLSTICQEDRQLICVLCPVIGAHQGHQLSTLDEA, the abundance fitness amounted to 0.127 ± 0.1.

In the case of VAKRKCPDHGLDLSTACQEDRQLICVLCPVIGAHQGHQLSTLDEA, the abundance fitness is -0.266 ± 0.028.

With VAKRKCPDHGLDLSTGCQEDRQLICVLCPVIGAHQGHQLSTLDEA, the abundance fitness was -0.373 ± 0.027.

Regarding VAKRKCPDHGLDLSTFCQEDRQLICVLCPVIGAHQGHQLSTLDEA, the abundance fitness was -0.069 ± 0.043.

With VAKRKCPDHGLDLSTRCQEDRQLICVLCPVIGAHQGHQLSTLDEA, the abundance fitness was -0.043 ± 0.028.

With VAKRKCPDHGLDLSTECQEDRQLICVLCPVIGAHQGHQLSTLDEA, the abundance fitness was -0.033 ± 0.031.

As for VAKRKCPDHGLDLSTKCQEDRQLICVLCPVIGAHQGHQLSTLDEA, the abundance fitness is -0.059 ± 0.037.

On to VAKRKCPDHGLDLSTLCQEDRQLICVLCPVIGAHQGHQLSTLDEA, for which the abundance fitness is -0.054 ± 0.031.

For the variant VAKRKCPDHGLDLSTYCQEDHQLICVLCPVIGAHQGHQLSTLDEA, the abundance fitness amounted to 0.029 ± 0.044.

On to VAKRKCPDHGLDLSTYCQEDAQLICVLCPVIGAHQGHQLSTLDEA, for which the abundance fitness was 0 ± 0.027.

For the variant VAKRKCPDHGLDLSTYCQEDDQLICVLCPVIGAHQGHQLSTLDEA, the abundance fitness was determined as 0.071 ± 0.035.

Consider VAKRKCPDHGLDLSTYCQEDCQLICVLCPVIGAHQGHQLSTLDEA, for which the abundance fitness amounted to 0.009 ± 0.032.

Take VAKRKCPDHGLDLSTYCQEDGQLICVLCPVIGAHQGHQLSTLDEA: the abundance fitness stood at 0.025 ± 0.025.

For VAKRKCPDHGLDLSTYCQEDEQLICVLCPVIGAHQGHQLSTLDEA, the abundance fitness was determined as 0.043 ± 0.029.

Take VAKRKCPDHGLDLSWYCQEDRQLICVLCPVIGAHQGHQLSTLDEA: the abundance fitness is -0.2 ± 0.03.

Turning to VAKRKCPDHGLDLSVYCQEDRQLICVLCPVIGAHQGHQLSTLDEA, the abundance fitness is -0.198 ± 0.027.

VAKRKCPDHGLDLSHYCQEDRQLICVLCPVIGAHQGHQLSTLDEA: the abundance fitness is -0.033 ± 0.043.

Turning to VAKRKCPDHGLDLSQYCQEDRQLICVLCPVIGAHQGHQLSTLDEA, the abundance fitness worked out at 0.039 ± 0.033.

With VAKRKCPDHGLDLSIYCQEDRQLICVLCPVIGAHQGHQLSTLDEA, the abundance fitness is -0.137 ± 0.062.

Take VAKRKCPDHGLDLSMYCQEDRQLICVLCPVIGAHQGHQLSTLDEA: the abundance fitness is -0.106 ± 0.039.

As to VAKRKCPDHGLDLSPYCQEDRQLICVLCPVIGAHQGHQLSTLDEA, the abundance fitness was -0.544 ± 0.04.

In the case of VAKRKCPDHGLDLSDYCQEDRQLICVLCPVIGAHQGHQLSTLDEA, the abundance fitness is -0.006 ± 0.036.

VAKRKCPDHGLDLSFYCQEDRQLICVLCPVIGAHQGHQLSTLDEA: the abundance fitness was -0.382 ± 0.046.

VAKRKCPDHGLDLSYYCQEDRQLICVLCPVIGAHQGHQLSTLDEA: the abundance fitness was found to be 0.001 ± 0.1.

As for VAKRKCPDHGLDLSSYCQEDRQLICVLCPVIGAHQGHQLSTLDEA, the abundance fitness is -0.03 ± 0.03.

On to VAKRKCPDHGLDLSKYCQEDRQLICVLCPVIGAHQGHQLSTLDEA, for which the abundance fitness was 0.048 ± 0.035.

As to VAKRKCPDHGLDLSNYCQEDRQLICVLCPVIGAHQGHQLSTLDEA, the abundance fitness was determined as 0.014 ± 0.039.
